According to US7235629B2, “Functional fragment of the leptin receptor” (Vlaams Interuniversitair Instituut voor Biotechnologie VZW, priority 2000, dated 2007):
Values belong to the molecule of their own block, whether it stands above or below them.

Experiments:
FLAG-tagged SOCS3 = target: T1, FLAG-tagged SOCS3 (Rattus norvegicus, UniProt O88583); test: Phosphopeptide affinity chromatography with anti-FLAG Western blot: SOCS3 binding to biotinylated leptin receptor peptides; conditions: lysates of about 3×10^7 HEK293T cells transfected with pMET7-fSOCS3; 5 nmoles biotinylated peptide on streptavidin-agarose; two hours at 4° C.
T1 construct: expressed in transfected cells; host or cells: HEK293T cells (transient transfection; cleared lysate used)
T1 sequence (O88583 1-225): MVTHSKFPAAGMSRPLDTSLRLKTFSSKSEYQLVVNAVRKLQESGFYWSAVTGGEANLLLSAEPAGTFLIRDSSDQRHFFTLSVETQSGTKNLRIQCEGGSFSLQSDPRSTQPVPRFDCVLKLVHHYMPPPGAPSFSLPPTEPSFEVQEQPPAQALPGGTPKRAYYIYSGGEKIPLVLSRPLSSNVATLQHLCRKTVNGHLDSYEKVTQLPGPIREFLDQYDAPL
Source text: Monoclonal anti-FLAG antibody M2 was obtained from Sigma. Mouse recombinant leptin was purchased from R&D Systems. Peptides were synthesized using standard Fmoc-amino-acid solid phase chemistry on an Applied Biosystems Model 431A peptide synthesizer. Biotin was manually esterified following similar procedures as on the synthesizer and added to the reaction mixture. Incorporation of phosphotyrosine was realized by using a protected Fmoc-tyrosine-phosphobenzylester (Novabiochem). After purification, the mass of the peptides was confirmed by mass spectrometry. Sequences of the peptides were biotin-QRQPSVK(p)Y985ATLVSNDK (SEQ ID NO:7) and biotin-NHREKSVC(p)Y1077 LGVTSVNR (SEQ ID NO:8).
Approximately 10^6 HEK293T cells were lysed in 150 μl 2× loading buffer. After sonication, 30 μl was loaded on a 10% polyacrylamide gel. […] Blotting efficiency was checked using PonceauS staining (Sigma).
For phosphopeptide affinity chromatography, approximately 3×10^7 HEK293T cells transiently transfected as indicated were lysed in lysis buffer (20 mM Hepes pH 7; 1 mM MgCl2; 10 mM KCl; 0.5 mM DTT; 150 mM NaCl; 0.5% NP40; 1 mM NaVO4; 5 mM NaF; 20% glycerol; Complete™ Protease Inhibitor Cocktail (Roche)). Precipitated material was cleared by 5 minutes centrifugation at 10,000 g. To eliminate a-specific interactions, supernatants were brought on a pre-column containing Sepharose 4B beads prior to phosphopeptide affinity chromatography on streptavidin-coupled agarose beads (Sigma). Peptide concentrations were determined by a colorimetric assay using alkaline hydrolysis and a ninhydrine reagent. Fifty μl of streptavidin-agarose slurry was incubated with 5 nmoles of peptide for each reaction. Cleared lysate was incubated for two hours at 4° C. under slow stirring. […]
The interaction sites of SOCS3 with the leptin receptor were confirmed using a biochemical approach. FLAG-tagged SOCS3 was expressed upon transient transfection of pMET7-fSOCS3 in HEK293T cells and was analyzed for binding to (phospho)-tyrosine-containing peptides matching the two motifs within the leptin receptor. […]

leptin receptor [1] = test: rPAP1-luciferase reporter assay of leptin signalling in HEK293T cells co-transfected with leptin receptor variants and SOCS3; type: cell-based, murine; conditions: 24 hours leptin
Protocol: HEK293T cells were maintained in a 10% CO2 humidified atmosphere at 37° C. and grown using DMEM with 4500 mg/l glucose, 10% fetal bovine serum and 50 μg/ml gentamycin (all from LifeTechnologies). Typically, 4×10^5 cells were seeded the day before transfection in a 6-well plate and transfected overnight with approximately 2 μg plasmid DNA using a standard calcium phosphate precipitation procedure. One day after transfection, cells were re-suspended with Cell Dissociation Agent (LifeTechnologies), seeded in a black well plate (Costar) and stimulated overnight with […] leptin or left unstimulated.
(§1) Luciferase assays, binding assays using Leptin-SEAP and Northern blot hybridizations with SOCS3 and actin probes were described previously by Eyckerman et al. (1999). β-galactosidase activity was measured using the Galacto-Star™ chemiluminescent detection kit (Tropix) and a Topcount Chemiluminescence Counter (Packard).
Based on its functional similarity with the gp130 chain, the leptin receptor was tested for interaction with SOCS3. Leptin receptor variants containing Y to F mutations at positions Y985, Y1077, or at both sites, were tested in a functional assay based on rPAP1-induction. Signalling via the leptin receptor variants was analyzed upon transient transfection in HEK293T cells with the pXP2d2-rPAP11uci and the FLAG-tagged pMET7-fSOCS3 expression construct. Luciferase activity data were normalized by co-transfection with pUT651 and a β-galactosidase activity assay.
Expression of leptin receptor variants and SOCS3 were confirmed, respectively, by a binding assay using a leptin-SEAP fusion protein and Western blot analysis using an anti-FLAG antibody (FIG. 3). LR expression levels were measured on transfected cells by incubation for 90 minutes with Leptin-SEAP fusion protein with or without excess leptin (100×). The transfected cells were stimulated for 24 hours with leptin or left untreated. Luciferase measurements were performed in triplicate and were normalized by co-transfection with the pUT651 β-galactosidase construct and a β-galactosidase activity assay. The results indicated a strong inhibitory activity of SOCS3 (80-90% inhibition) when the wild-type or the mutant Y1077F leptin receptor was expressed, and a moderate inhibition (30-50% inhibition) upon expression of a Y985F receptor variant.

leptin receptor [2] = test: Leptin-induced pGL3-rPAP1-luci reporter induction in PC12 LR8 cells transiently expressing SOCS3; type: cell-based, mouse; conditions: leptin 24 hours
Protocol: FIG. 1: Expression of SOCS3 leads to inhibition of leptin-induced rPAP1 expression in PC12 cells. PC12 LR8 cells were co-transfected with a plasmid encoding SOCS3 (pMET7fSOCS3) or empty vector (mock, pMET7), and a pGL3-rPAP11 reporter construct. Forty-eight hours after transfection, the cells were stimulated with leptin or left untreated. Luciferase activity was measured in triplicate after 24 hours. CPS: absolute luminescence counts per second; NS: nonstimulated negative control.
Culture conditions and transient transfection procedures for PC12 and generation of the PC12LR8 cell line were as previously described. (Eyckerman et al., 1999; Waelput et al., 2000.)
as §1
Through representational difference analysis, a PCR-based differential expression screening in PC12 cells expressing the mouse leptin receptor, several leptin-induced transcripts (including SOCS3) were identified. In order to check the inhibitory role of SOCS3 on leptin signaling in the cell systems used, an expression vector containing rat SOCS3 was generated. […]

[3] = target: murine leptin receptor, long isoform, Y985F (mouse), P48356; test: cell-based or functional assay
Sequence of murine leptin receptor, long isoform, Y985F (mouse), P48356 (P48356 22-1162 Y985F): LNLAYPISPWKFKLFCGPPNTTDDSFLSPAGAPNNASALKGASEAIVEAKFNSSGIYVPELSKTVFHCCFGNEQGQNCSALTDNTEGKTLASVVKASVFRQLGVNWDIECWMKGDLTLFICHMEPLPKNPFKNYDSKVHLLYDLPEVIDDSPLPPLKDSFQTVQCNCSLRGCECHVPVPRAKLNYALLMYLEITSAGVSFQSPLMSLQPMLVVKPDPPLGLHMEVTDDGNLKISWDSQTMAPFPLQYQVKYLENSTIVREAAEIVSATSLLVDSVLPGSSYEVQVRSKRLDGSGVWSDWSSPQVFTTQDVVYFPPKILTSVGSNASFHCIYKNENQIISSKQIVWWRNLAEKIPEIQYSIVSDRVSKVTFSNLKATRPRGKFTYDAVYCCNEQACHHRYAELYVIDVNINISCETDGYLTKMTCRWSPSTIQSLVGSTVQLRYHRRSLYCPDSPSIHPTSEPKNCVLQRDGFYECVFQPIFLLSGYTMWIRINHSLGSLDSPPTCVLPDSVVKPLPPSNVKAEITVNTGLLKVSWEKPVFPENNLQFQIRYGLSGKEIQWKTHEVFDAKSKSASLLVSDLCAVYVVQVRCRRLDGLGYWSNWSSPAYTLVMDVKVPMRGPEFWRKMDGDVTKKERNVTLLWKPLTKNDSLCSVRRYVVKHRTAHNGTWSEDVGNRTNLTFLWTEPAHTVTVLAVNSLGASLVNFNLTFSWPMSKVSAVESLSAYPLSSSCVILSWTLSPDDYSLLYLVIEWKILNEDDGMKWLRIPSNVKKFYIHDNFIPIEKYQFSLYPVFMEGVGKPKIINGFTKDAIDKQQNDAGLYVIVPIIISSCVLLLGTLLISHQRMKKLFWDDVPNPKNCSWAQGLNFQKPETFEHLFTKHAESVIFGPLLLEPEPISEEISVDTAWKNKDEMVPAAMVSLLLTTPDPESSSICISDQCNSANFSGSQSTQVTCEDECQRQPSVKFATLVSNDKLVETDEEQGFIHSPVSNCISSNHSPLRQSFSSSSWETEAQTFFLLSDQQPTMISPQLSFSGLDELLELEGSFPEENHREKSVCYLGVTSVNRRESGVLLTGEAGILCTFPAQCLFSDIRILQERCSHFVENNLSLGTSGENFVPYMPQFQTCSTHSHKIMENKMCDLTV

[4] = target: murine leptin receptor, long isoform, wild type (mouse), P48356; test: cell-based or functional assay
Sequence of murine leptin receptor, long isoform, wild type (mouse), P48356 (P48356 22-1162): as the sequence (P48356 22-1162 Y985F) above, with F964Y counted along it

[5] = target: murine leptin receptor, long isoform, Y1077F (mouse), P48356; test: cell-based or functional assay
Sequence of murine leptin receptor, long isoform, Y1077F (mouse), P48356 (P48356 22-1162 Y1077F): as the sequence (P48356 22-1162 Y985F) above, with F964Y, Y1056F counted along it

Molecule: biotin-NHREKSVC(p)Y1077 LGVTSVNR (SEQ ID NO:8) [phosphorylated Y1077 peptide]
binding of SOCS3 to peptide (Western blot, anti-FLAG antibody) (FLAG-tagged SOCS3): binds specifically to the phosphorylated Y1077 peptide, but apparently with a much lower affinity

Molecule: biotin-QRQPSVK(p)Y985ATLVSNDK (SEQ ID NO:7) [phosphorylated Y985 peptide]
binding of SOCS3 to peptide (Western blot, anti-FLAG antibody) (FLAG-tagged SOCS3): clear and specific binding

Molecule: biotin-QRQPSVK(p)Y985ATLVSNDK (SEQ ID NO:7) [non-phosphorylated peptide]
binding of SOCS3 to peptide (Western blot, anti-FLAG antibody) (FLAG-tagged SOCS3): did not bind any SOCS3 protein

inhibition of leptin-induced rPAP1 luciferase reporter [3]: 30 to 50 % inhibition
inhibition of leptin-induced rPAP1 luciferase reporter [4]: 80 to 90 % inhibition
inhibition of leptin-induced rPAP1 luciferase reporter [5]: 80 to 90 % inhibition
B1: FLAG-tagged rat SOCS3 (expressed from pMET7fSOCS3), O88583 1-225 (protein)
chain: MDYKDDDDKMVTHSKFPAAGMSRPLDTSLRLKTFSSKSEYQLVVNAVRKLQESGFYWSAVTGGEANLLLSAEPAGTFLIRDSSDQRHFFTLSVETQSGTKNLRIQCEGGSFSLQSDPRSTQPVPRFDCVLKLVHHYMPPPGAPSFSLPPTEPSFEVQEQPPAQALPGGTPKRAYYIYSGGEKIPLVLSRPLSSNVATLQHLCRKTVNGHLDSYEKVTQLPGPIREFLDQYDAPL
inhibition of leptin signalling (rPAP1 luciferase) (leptin receptor [1]; Y985F receptor variant): 30-50 % inhibition
inhibition of leptin signalling (rPAP1 luciferase) (leptin receptor [1]; double Y985/1077F mutant): no inhibition was observed
inhibition of leptin signalling (rPAP1 luciferase) (leptin receptor [1]; mutant Y1077F leptin receptor): 80-90 % inhibition
inhibition of leptin signalling (rPAP1 luciferase) (leptin receptor [1]; wild-type leptin receptor): 80-90 % inhibition
inhibition of leptin-mediated reporter induction (leptin receptor [2]): marked inhibition
